The values below come from article PMC10055104, “Organic Anion Transporting Polypeptide 3A1 (OATP3A1)-Gated Bio-Orthogonal Labeling of Intracellular Proteins” (Molecules, 2023).

Data set [1] addresses T1, OATP3A1 (Homo sapiens, UniProt Q9UIG8).
T1 construct: gene SLCO3A1; full-length transporter overexpressed in HEK-293 cells by recombinant lentivirus
T1 sequence (Q9UIG8 1-710): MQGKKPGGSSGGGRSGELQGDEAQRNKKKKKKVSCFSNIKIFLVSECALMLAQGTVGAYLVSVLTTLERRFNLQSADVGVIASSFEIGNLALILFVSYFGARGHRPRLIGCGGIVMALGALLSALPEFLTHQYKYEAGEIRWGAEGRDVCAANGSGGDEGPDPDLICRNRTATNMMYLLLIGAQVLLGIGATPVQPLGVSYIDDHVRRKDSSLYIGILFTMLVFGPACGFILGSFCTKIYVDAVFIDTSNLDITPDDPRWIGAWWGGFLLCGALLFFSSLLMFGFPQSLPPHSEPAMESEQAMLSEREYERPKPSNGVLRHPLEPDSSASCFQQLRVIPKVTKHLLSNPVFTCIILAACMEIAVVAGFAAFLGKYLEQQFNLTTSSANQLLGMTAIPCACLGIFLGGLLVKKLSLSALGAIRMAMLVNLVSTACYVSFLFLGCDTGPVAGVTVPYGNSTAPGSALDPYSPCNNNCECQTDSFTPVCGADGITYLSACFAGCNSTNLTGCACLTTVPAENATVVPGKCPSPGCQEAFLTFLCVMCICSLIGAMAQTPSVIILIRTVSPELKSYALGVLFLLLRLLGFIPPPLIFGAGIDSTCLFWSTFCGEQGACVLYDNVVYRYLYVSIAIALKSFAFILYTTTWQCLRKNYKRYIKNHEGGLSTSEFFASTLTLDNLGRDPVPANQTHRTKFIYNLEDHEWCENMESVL
Kind of data set: inhibition of CBRD2-BAT and CBRD4-BAT ([…]) uptake, flow cytometry. The settings on record: Uptake buffer pH 5.5, 37 °C, 15 min preincubation with inhibitor. The data set is classed as cell-based.

Substrate in data set [2]: CN(C)c1ccc(/C=C/c2cc[n+](CCCCCC(=O)NCc3ccc(-c4nncnn4)cc3)cc2S(=O)(=O)[O-])cc1
Kind of data set: flow cytometry uptake into HEK-293-OATP3A1 cells, normalised to mock cells, Michaelis-Menten fit. In kind it is cell-based, Homo sapiens. The settings on record: Uptake buffer pH 5.5, 37 °C, 15 min, transport. A general note: Flow cytometry measures light scatter and fluorescence of single cells or particles in a stream.

Substrate in data set [3]: CCN(CC)c1ccc2cc(/C=C/c3cc[n+](CCCCCC(=O)NCc4ccc(-c5nncnn5)cc4)cc3S(=O)(=O)[O-])c(=O)oc2c1
Described as above. In kind it is cell-based, Homo sapiens. The settings on record: Uptake buffer pH 5.5, 37 °C, 15 min, transport.

In the case of `CCc1oc2ccccc2c1C(=O)c1cc(Br)c(O)c(Br)c1` [benzbromarone], in data set [1], the “% decrease of transport at 20 μM” value is reported as ~ 90%.

B1: OATP3A1 (Homo sapiens) (protein)
chain: MQGKKPGGSSGGGRSGELQGDEAQRNKKKKKKVSCFSNIKIFLVSECALMLAQGTVGAYLVSVLTTLERRFNLQSADVGVIASSFEIGNLALILFVSYFGARGHRPRLIGCGGIVMALGALLSALPEFLTHQYKYEAGEIRWGAEGRDVCAANGSGGDEGPDPDLICRNRTATNMMYLLLIGAQVLLGIGATPVQPLGVSYIDDHVRRKDSSLYIGILFTMLVFGPACGFILGSFCTKIYVDAVFIDTSNLDITPDDPRWIGAWWGGFLLCGALLFFSSLLMFGFPQSLPPHSEPAMESEQAMLSEREYERPKPSNGVLRHPLEPDSSASCFQQLRVIPKVTKHLLSNPVFTCIILAACMEIAVVAGFAAFLGKYLEQQFNLTTSSANQLLGMTAIPCACLGIFLGGLLVKKLSLSALGAIRMAMLVNLVSTACYVSFLFLGCDTGPVAGVTVPYGNSTAPGSALDPYSPCNNNCECQTDSFTPVCGADGITYLSACFAGCNSTNLTGCACLTTVPAENATVVPGKCPSPGCQEAFLTFLCVMCICSLIGAMAQTPSVIILIRTVSPELKSYALGVLFLLLRLLGFIPPPLIFGAGIDSTCLFWSTFCGEQGACVLYDNVVYRYLYVSIAIALKSFAFILYTTTWQCLRKNYKRYIKNHEGGLSTSEFFASTLTLDNLGRDPVPANQTHRTKFIYNLEDHEWCENMESVL
notes: full-length transporter overexpressed in HEK-293 cells by recombinant lentivirus
As usually defined, the Km is the substrate concentration at which the rate is half of its maximum. For B1, the values for the Michaelis-Menten constant (Km) in data set [2] and in data set [3] were 45 µM and 7.2 µM, respectively.
